Source: patent publication US9284543B2, “Neutral active soluble truncated PH20 polypeptides and uses thereof” (Halozyme, Inc., priority 2008, dated 2016)

Experiments:
CHO-S cells = test: Western blot analysis of PH20 expression in media and cells after transient expression; format: cell-based, Chinese Hamster; conditions: media versus cells
Procedure: The mutant PH20-HZ24 plasmids generated in Example 1 were transiently […] into CHO—S cells (derived from Chinese Hamster Ovary CHO K1 cells) using GeneJuice® (Novagen) according to the manufacturer's instructions. In short, the CHO—S cells were grown in CD CHO medium supplemented with L-glutamine. Prior to transfection, the CHO—S cells were plated in 6-well plates, with approximately 5×10^5 cells per well, and grown overnight at 37° C. with 5% CO2. The medium was then removed and the CHO—S cells were washed 2 times with 1 mL serum-free medium. GeneJuice® was mixed with serum-free media followed by the addition of 2 μg mutant-HZ24 DNA. After incubating at room temperature for 5-15 minutes, the GeneJuice®/DNA mixture was added dropwise to an individual well containing the washed CHO—S cells. After 4 hours, the medium was replaced with 1 mL CD-CHO medium supplemented with L-glutamine and the cells were incubated for 72 hours at 37° C. with 5% CO2. Following expression, the media and cells were harvested separately.
The mutant PH20-HZ24 plasmids generated in Example 1 were transiently […] into CHO—S cells using GeneJuice® (Novagen) according to the manufacturer's instructions. […]
In this example, following transient expression, as described in Example 2 above, the media and cells were harvested separately and analyzed for PH20 expression and solublility by Western blot analysis. Solubility of the C-terminus truncation mutants was determined by examining whether the expressed protein was present in the growth media or in the cells. […] Cells expressing these mutants were treated with phosphoinositol-phospholipase C (PI-PLC), which cleaves the GPI-anchor allowing the release of soluble protein into the media, and the presence of PH20 in the resulting media and cells was determined by Western blot analysis.
Non-reduced samples were run on a 4-20% Tris-Glycine gel and transferred to PVDF membrane using iBlot (Invitrogen). For the Western blot, rabbit anti-PH20 IgG (0.5 μg/mL) was used as the primary antibody and HRP-conjugated goat anti-rabbit IgG (0.1 ng/mL, Cat#DC03L, EMD) was used as the secondary antibody. Evidence of expression is determined by a band at approximately 66 kDa, corresponding to recombinant human PH20 hyaluronidase.

[1] = Microtiter hyaluronidase activity assay with biotinylated-hyaluronic acid; format: biochemical; conditions: Table 6, 72 hour post transfection supernatant
Procedure: In Example 4, the hyaluronidase activity of truncated human PH20 hyaluronidase is determined using biotinylated hyaluronic acid. The free carboxyl groups on the glucuronic acid residues of hyaluronic acid are biotinylated, and the biotinylated hyaluronic acid substrate is covalently coupled to a microtiter plate. Following incubation with hyaluronidase, the residual biotinylated hyaluronic acid substrate is detected using an avidin-peroxidase reaction, and compared to that obtained following reaction with hyaluronidase standards of known activity. […] The sensitivity permits rapid measurement of hyaluronidase activity from cultured cells and biological samples with an inter-assay variation of less than 10%.
In this example, the human PH20 hyaluronidase carboxy-terminus deletion mutants were tested for their PH20 hyaluronidase activity using a microtiter assay with biotinylated-hyaluronic acid (biotinylated-HA or bHA). The human PH20 hyaluronidase carboxy-terminus deletion mutants were tested for hyaluronidase activity at both pH 7.4 and pH 5.5.
In short, a 4×BH 96-well plate was coated with biotinylated-HA (1.1 MDa). The 72 hour post transfection supernatant from cells transfected with human PH20 hyaluronidase carboxy-terminus deletion mutants was diluted in buffer at either pH 7.4 or pH 5.5 and added to individual wells of the plate and allowed to incubate at 37° C. for 90 minutes. The reaction was terminated by addition of 4M guanidine HCl. The wells were washed 4× with Phosphate Buffered Saline with Tween20 (PBST) to remove any digested biotinylated-HA followed by addition of streptavidin-HRP for 1 hour at room temperature. The wells were washed 4× with PBST and the plate was developed with TMB. The plate was read at 450 nm using an ELISA plate reader. Hyaluronidase activity (in Units/mL) was determined by interpolating the measured absorbance at 450 nm with a hyaluronidase reference standard curve. Full length mature human PH20 hyaluronidase and untransfected CHO cells were used as positive and negative controls.

Molecule	pH 5.5 Activity [1] [Units/ml]	pH 7.4 Activity [1] [Units/ml]	Expressed in Media (CHO-S cells)
SPAM1-CIDA: C-terminally truncated human PH20, precursor 467 aa (SEQ ID NO:33), mature 432 aa (SEQ ID NO:85) (protein, listed as Homo sapiens, HuPH20 precursor 1-467; Mature HuPH20 36-467) chain 1: MGVLKFKHIFFRSFVKSSGVSQIVFTFLLIPCCLTLNFRAPPVIPNVPFLWAWNAPSEFCLGKFDEPLDMSLFSFIGSPRINATGQGVTIFYVDRLGYYPYIDSITGVTVNGGIPQKISLQDHLDKAKKDITFYMPVDNLGMAVIDWEEWRPTWARNWKPKDVYKNRSIELVQQQNVQLSLTEATEKAKQEFEKAGKDFLVETIKLGKLLRPNHLWGYYLFPDCYNHHYKKPGYNGSCFNVEIKRNDDLSWLWNESTALYPSIYLNTQQSPVAATLYVRNRVREAIRVSKIPDAKSPLPVFAYTRIVFTDQVLKFLSQDELVYTFGETVALGASGIVIWGTLSIMRSMKSCLLLDNYMETILNPYIINVTLAAKMCSQVLCQEQGVCIRKNWNSSDYLHLNPDNFAIQLEKGGKFTVRGKPTLEDLEQFSEKFYCSCYSTLSCKEKADVKDTDAVDVCIADGVCIDA chain 2: LNFRAPPVIPNVPFLWAWNAPSEFCLGKFDEPLDMSLFSFIGSPRINATGQGVTIFYVDRLGYYPYIDSITGVTVNGGIPQKISLQDHLDKAKKDITFYMPVDNLGMAVIDWEEWRPTWARNWKPKDVYKNRSIELVQQQNVQLSLTEATEKAKQEFEKAGKDFLVETIKLGKLLRPNHLWGYYLFPDCYNHHYKKPGYNGSCFNVEIKRNDDLSWLWNESTALYPSIYLNTQQSPVAATLYVRNRVREAIRVSKIPDAKSPLPVFAYTRIVFTDQVLKFLSQDELVYTFGETVALGASGIVIWGTLSIMRSMKSCLLLDNYMETILNPYIINVTLAAKMCSQVLCQEQGVCIRKNWNSSDYLHLNPDNFAIQLEKGGKFTVRGKPTLEDLEQFSEKFYCSCYSTLSCKEKADVKDTDAVDVCIADGVCIDA	0.4725	0.5535	YES
SPAM1-DAFL: C-terminally truncated human PH20, precursor 469 aa (SEQ ID NO:31), mature 434 aa (SEQ ID NO:83) (protein, listed as Homo sapiens, HuPH20 precursor 1-469; Mature HuPH20 36-469) chain 1: MGVLKFKHIFFRSFVKSSGVSQIVFTFLLIPCCLTLNFRAPPVIPNVPFLWAWNAPSEFCLGKFDEPLDMSLFSFIGSPRINATGQGVTIFYVDRLGYYPYIDSITGVTVNGGIPQKISLQDHLDKAKKDITFYMPVDNLGMAVIDWEEWRPTWARNWKPKDVYKNRSIELVQQQNVQLSLTEATEKAKQEFEKAGKDFLVETIKLGKLLRPNHLWGYYLFPDCYNHHYKKPGYNGSCFNVEIKRNDDLSWLWNESTALYPSIYLNTQQSPVAATLYVRNRVREAIRVSKIPDAKSPLPVFAYTRIVFTDQVLKFLSQDELVYTFGETVALGASGIVIWGTLSIMRSMKSCLLLDNYMETILNPYIINVTLAAKMCSQVLCQEQGVCIRKNWNSSDYLHLNPDNFAIQLEKGGKFTVRGKPTLEDLEQFSEKFYCSCYSTLSCKEKADVKDTDAVDVCIADGVCIDAFL chain 2: LNFRAPPVIPNVPFLWAWNAPSEFCLGKFDEPLDMSLFSFIGSPRINATGQGVTIFYVDRLGYYPYIDSITGVTVNGGIPQKISLQDHLDKAKKDITFYMPVDNLGMAVIDWEEWRPTWARNWKPKDVYKNRSIELVQQQNVQLSLTEATEKAKQEFEKAGKDFLVETIKLGKLLRPNHLWGYYLFPDCYNHHYKKPGYNGSCFNVEIKRNDDLSWLWNESTALYPSIYLNTQQSPVAATLYVRNRVREAIRVSKIPDAKSPLPVFAYTRIVFTDQVLKFLSQDELVYTFGETVALGASGIVIWGTLSIMRSMKSCLLLDNYMETILNPYIINVTLAAKMCSQVLCQEQGVCIRKNWNSSDYLHLNPDNFAIQLEKGGKFTVRGKPTLEDLEQFSEKFYCSCYSTLSCKEKADVKDTDAVDVCIADGVCIDAFL	2.2365	2.3895	YES

More lines, main results first:

pH 5.5 Activity [1] [Units/ml]	pH 7.4 Activity [1] [Units/ml]	Molecule	Expressed in Media (CHO-S cells)
0.6278	0.5625	SPAM1-IDAF: C-terminally truncated human PH20, precursor 468 aa (SEQ ID NO:32), mature 433 aa (SEQ ID NO:84) (protein, listed as Homo sapiens, HuPH20 precursor 1-468; Mature HuPH20 36-468) chain 1: MGVLKFKHIFFRSFVKSSGVSQIVFTFLLIPCCLTLNFRAPPVIPNVPFLWAWNAPSEFCLGKFDEPLDMSLFSFIGSPRINATGQGVTIFYVDRLGYYPYIDSITGVTVNGGIPQKISLQDHLDKAKKDITFYMPVDNLGMAVIDWEEWRPTWARNWKPKDVYKNRSIELVQQQNVQLSLTEATEKAKQEFEKAGKDFLVETIKLGKLLRPNHLWGYYLFPDCYNHHYKKPGYNGSCFNVEIKRNDDLSWLWNESTALYPSIYLNTQQSPVAATLYVRNRVREAIRVSKIPDAKSPLPVFAYTRIVFTDQVLKFLSQDELVYTFGETVALGASGIVIWGTLSIMRSMKSCLLLDNYMETILNPYIINVTLAAKMCSQVLCQEQGVCIRKNWNSSDYLHLNPDNFAIQLEKGGKFTVRGKPTLEDLEQFSEKFYCSCYSTLSCKEKADVKDTDAVDVCIADGVCIDAF chain 2: LNFRAPPVIPNVPFLWAWNAPSEFCLGKFDEPLDMSLFSFIGSPRINATGQGVTIFYVDRLGYYPYIDSITGVTVNGGIPQKISLQDHLDKAKKDITFYMPVDNLGMAVIDWEEWRPTWARNWKPKDVYKNRSIELVQQQNVQLSLTEATEKAKQEFEKAGKDFLVETIKLGKLLRPNHLWGYYLFPDCYNHHYKKPGYNGSCFNVEIKRNDDLSWLWNESTALYPSIYLNTQQSPVAATLYVRNRVREAIRVSKIPDAKSPLPVFAYTRIVFTDQVLKFLSQDELVYTFGETVALGASGIVIWGTLSIMRSMKSCLLLDNYMETILNPYIINVTLAAKMCSQVLCQEQGVCIRKNWNSSDYLHLNPDNFAIQLEKGGKFTVRGKPTLEDLEQFSEKFYCSCYSTLSCKEKADVKDTDAVDVCIADGVCIDAF	YES
0.2115	0	SPAM1-VCID: C-terminally truncated human PH20, precursor 466 aa (SEQ ID NO:34), mature 431 aa (SEQ ID NO:86) (protein, listed as Homo sapiens, HuPH20 precursor 1-466; Mature HuPH20 36-466) chain 1: MGVLKFKHIFFRSFVKSSGVSQIVFTFLLIPCCLTLNFRAPPVIPNVPFLWAWNAPSEFCLGKFDEPLDMSLFSFIGSPRINATGQGVTIFYVDRLGYYPYIDSITGVTVNGGIPQKISLQDHLDKAKKDITFYMPVDNLGMAVIDWEEWRPTWARNWKPKDVYKNRSIELVQQQNVQLSLTEATEKAKQEFEKAGKDFLVETIKLGKLLRPNHLWGYYLFPDCYNHHYKKPGYNGSCFNVEIKRNDDLSWLWNESTALYPSIYLNTQQSPVAATLYVRNRVREAIRVSKIPDAKSPLPVFAYTRIVFTDQVLKFLSQDELVYTFGETVALGASGIVIWGTLSIMRSMKSCLLLDNYMETILNPYIINVTLAAKMCSQVLCQEQGVCIRKNWNSSDYLHLNPDNFAIQLEKGGKFTVRGKPTLEDLEQFSEKFYCSCYSTLSCKEKADVKDTDAVDVCIADGVCID chain 2: LNFRAPPVIPNVPFLWAWNAPSEFCLGKFDEPLDMSLFSFIGSPRINATGQGVTIFYVDRLGYYPYIDSITGVTVNGGIPQKISLQDHLDKAKKDITFYMPVDNLGMAVIDWEEWRPTWARNWKPKDVYKNRSIELVQQQNVQLSLTEATEKAKQEFEKAGKDFLVETIKLGKLLRPNHLWGYYLFPDCYNHHYKKPGYNGSCFNVEIKRNDDLSWLWNESTALYPSIYLNTQQSPVAATLYVRNRVREAIRVSKIPDAKSPLPVFAYTRIVFTDQVLKFLSQDELVYTFGETVALGASGIVIWGTLSIMRSMKSCLLLDNYMETILNPYIINVTLAAKMCSQVLCQEQGVCIRKNWNSSDYLHLNPDNFAIQLEKGGKFTVRGKPTLEDLEQFSEKFYCSCYSTLSCKEKADVKDTDAVDVCIADGVCID	YES
